This is an account of results in patent publication US20220096653A1, “CONJUGATE COMPRISING LIGAND AND CEACAM5 ANTIBODY FAB FRAGMENT” (ASTELLAS PHARMA INC., priority 2019, published 2022).

Read-outs that look alike come from different tables or passages of the source.

The target in data set [1] is human cancer-specific MUC1 peptide (PTL 1) (human). Briefly: ELISA on immobilised human cancer-specific MUC1 peptide, 4-parameter fit, duplicate (Example 6-1). In general terms: An ELISA detects its analyte on a solid surface through an enzyme-linked reagent.
The target is the same in data set [2]. Briefly: ELISA on immobilised human cancer-specific MUC1 peptide, 4-parameter fit, duplicate (Example 6-2).
Data set [3] deals with human cancer-specific MUC1 peptide. In words: ELISA binding activity of anti-human MUC1 antibody Fab^5 fragment conjugates (Example 6-1). On the procedure: (§1) Each anti-human MUC1 antibody Fab^5 fragment conjugate prepared by the method of Example 5 was subjected to ELISA to evaluate the binding activity thereof to human cancer-specific MUC1. In the present test, 20×PBS/Tween 20 Buffer (Thermo Fisher Scientific Inc., 28352) diluted 20-fold with distilled water was used as a wash liquid. In addition, for bovine serum albumin (BSA) used in the present test, 30% Bovine Serum Albumin solution (Sigma-Aldrich, Inc., A9576-50ML) was added in an appropriate proportion for use. A human cancer-specific MUC1 peptide (PTL 1) at 0.5 μmol/L was added to a Nunc MaxiSorp White 384 plate (Nunc, 460372) at 30 μL per well, and the plate was incubated overnight at 4° C. for immobilization. The MUC1 peptide was removed by reverse centrifugation, and then blocking was carried out by adding a PBS/Tween 20 buffer containing 5.0% BSA. Thereafter, the blocking solution was removed by reverse centrifugation, a solution of each anti-human MUC1 antibody Fab^5 fragment conjugate (Ex-No. 104, 108, or 112) described above at about 10000 ng/mL was diluted in 14 steps by 3-fold dilution using a PBS/Tween 20 buffer containing 1.0% BSA, and 30 μL was added per well and incubated at room temperature for 60 minutes. The plate was washed 3 times with a PBS/Tween 20 buffer, and Horseradish Peroxidase-labeled goat anti-human IgK antibody (Southern Biotechnology Associates, Inc.) diluted 10000-fold using a PBS/Tween 20 buffer containing 5.0% BSA was added at 30 μL per well and incubated at room temperature for 30 minutes. The plate was washed 3 times with a PBS/Tween 20 buffer, and ECL Prime Western Blotting DETECTION Reagent (GE Healthcare, RPN2232) as a substrate was added at 30 μL per well. The substrate was incubated at room temperature for 15 minutes, and then a signal value thereof was measured using an Envision counter (PerkinElmer, Inc.).
(§2) The test for each antibody was carried out in duplicate, and the EC50 value was calculated using a 4-parameter logistic curve model.

The target in data set [4] is human cancer-specific MUC1 peptide (Homo sapiens, UniProt P15941). In words: ELISA binding activity of anti-human MUC1 antibody Fab^5 fragment conjugates (Example 6-2). On the procedure: as §1, with “101-113)” for “104, 108, or 112)”
as §2

On the set-up of data set [5]: species or system mice (BALB/c or BALB/c nu/nu). The following applies: mouse, in vivo.
Procedure: A Gd-labeled conjugate of the conjugate containing a peptide linker produced in one of the above Examples was administered from the tail vein of mice (BALB/c or BALB/c nu/nu) so that the protein mass was 0.02 mg (100 μL) per animal. After about 24 hours, the mice were sacrificed and the kidneys were removed, and the amount of Gd in the kidneys was measured using ICP-MS. The present test was carried out in 3 cases in each group, the mean value of the 3 cases was calculated, and the amount of Gd contained per kidney after administration was shown as a percentage (% of dose/tissue) of the total amount of Gd administered.
Based on the amount of Gd contained in the kidneys of the control conjugate, the proportion of decrease in the amount of Gd contained in the kidneys of each of the conjugates having a peptide linker was determined.
On the set-up of data set [6]: species or system mice (BALB/c nu/nu). The note with it: mouse, in vivo.
Procedure: A Gd-labeled conjugate of the conjugate containing a peptide linker produced in one of the above Examples was administered from the tail vein of the tumor-bearing mice so that the protein mass was 0.02 mg (100 μL) per animal. As the tumor-bearing mice used in the present Example, mice (BALB/c nu/nu) that were in a tumor-bearing state brought about by transplanting human breast cancer cell line MDA-MB-468 (ATCC(registered trademark); HTB-132) at 5.0×10^6 cells/mouse subcutaneously on the back before administration of the sample were used. 24 hours after administration of the sample, the mice were sacrificed, the kidneys and the tumor were removed, and the amounts of Gd in the kidneys and in the tumor were measured using ICP-MS. The present test was carried out in 3 cases in each group, and the mean value of the 3 cases was calculated. The amount of Gd contained per kidney after administration was shown as a percentage of the amount of Gd administered (% of dose/tissue), and the amount of Gd contained per g of tumor tissue was shown as a percentage of the total amount of Gd administered (% of dose/g).
Setting [7] is: each conjugate run in duplicate, Table 52, read-out: EC50.
[8] abbreviates: each conjugate run in duplicate, Table 54, read-out: EC50.

human cancer-specific MUC1 peptide (Homo sapiens, UniProt P15941), sequence (P15941 136-155): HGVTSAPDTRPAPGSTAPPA

B1: [Gd/DOTA-NH-CH2-(1,4-Ph)-NH-C(═O)-Met-Ile-NH-(CH2)2-(A-4 and/or A-5)]p-Fab^5 (Fab, V domains shown)
VH: QVQLVQSGAEVKKPGASVKVSCKASGYTFTNYGLSWVRQAPGQGLEWMGENHPGSGIIYHNEKFRGRVTLTADRSTSTAYMELSSLRSEDTAVYYCARSSGTRGFDYWGQGTLVTVSS
VL: DVVMTQTPLSLSVTPGQPASISCRSSQSIVHSNGNTYLEWYLQKPGQSPQLLIYRVSNRFSGVPDRFSGSGSGTDFTLKISRVEAEDVGVYYCFQGSHGPWTFGQGTKLEIKR
modifications: labeling may sit on this chain; sites not stated; labeling portion (MW 1092) on amino groups of the Fab, sites and chain not stated; 1-3 per Fab by MS; Gln 1 pyroglutamic acid as Fab^5 is defined in paragraph 370
In the case of B1, the EC50 in data set [1] is 0.08 nM.

B2: Ex-No 108, conjugate of Fab^5 without peptide linker (structure given only as drawing CHEM-US-00165) (Fab, V domains shown)
VH: QVQLVQSGAEVKKPGASVKVSCKASGYTFTNYGLSWVRQAPGQGLEWMGENHPGSGIIYHNEKFRGRVTLTADRSTSTAYMELSSLRSEDTAVYYCARSSGTRGFDYWGQGTLVTVSS
VL: DVVMTQTPLSLSVTPGQPASISCRSSQSIVHSNGNTYLEWYLQKPGQSPQLLIYRVSNRFSGVPDRFSGSGSGTDFTLKISRVEAEDVGVYYCFQGSHGPWTFGQGTKLEIKR
modifications: labeling may sit on this chain; sites not stated; low molecular weight molecule (MW 542) bound to the Fab, sites and chain not stated; 1-3 per Fab by MS; Gln 1 pyroglutamic acid as Fab^5 is defined in paragraph 370
Take B2: the EC50 in data set [1] and in data set [2] was 0.07 nM in each case.

B3: [Gd/DOTA-NH-CH2-(1,4-Ph)-NH-C(═O)-Met-Ile-NH-(CH2)2-(A-3)]p-Fab^5 (Fab, V domains shown)
VH: QVQLVQSGAEVKKPGASVKVSCKASGYTFTNYGLSWVRQAPGQGLEWMGENHPGSGIIYHNEKFRGRVTLTADRSTSTAYMELSSLRSEDTAVYYCARSSGTRGFDYWGQGTLVTVSS
VL: DVVMTQTPLSLSVTPGQPASISCRSSQSIVHSNGNTYLEWYLQKPGQSPQLLIYRVSNRFSGVPDRFSGSGSGTDFTLKISRVEAEDVGVYYCFQGSHGPWTFGQGTKLEIKR
modifications: labeling may sit on this chain; sites not stated; labeling portion (MW 1187) on amino groups of the Fab, sites and chain not stated; 1-2 per Fab by MS; Gln 1 pyroglutamic acid as Fab^5 is defined in paragraph 370
B3 displayed an EC50 in data set [1] of 0.15 nM.

B4: P10-2: anti-human MUC1 antibody Fab fragment disclosed in International Publication WO2018/092885; heavy chain fragment SEQ ID NO: 8, light chain SEQ ID NO: 10 (antibody)
heavy: QVQLVQSGAEVKKPGASVKVSCKASGYTFTNYGLSWVRQAPGQGLEWMGENHPGSGIIYHNEKFRGRVTLTADRSTSTAYMELSSLRSEDTAVYYCARSSGTRGFDYWGQGTLVTVSSASTKGPSVFPLAPSSKSTSGGTAALGCLVKDYFPEPVTVSWNSGALTSGVHTFPAVLQSSGLYSLSSVVTVPSSSLGTQTYICNVNHKPSNTKVDKKVEPKSCD
light: DVVMTQTPLSLSVTPGQPASISCRSSQSIVHSNGNTYLEWYLQKPGQSPQLLIYRVSNRFSGVPDRFSGSGSGTDFTLKISRVEAEDVGVYYCFQGSHGPWTFGQGTKLEIKRTVAAPSVFIFPPSDEQLKSGTASVVCLLNNFYPREAKVQWKVDNALQSGNSQESVTEQDSKDSTYSLSSTLTLSKADYEKHKVYACEVTHQGLSSPVTKSFNRGEC
modifications: P10-2 Fab heavy chain fragment; Antibody light chain
Consider B4, for which the EC50 in data set [3] (EC50 value for each of 3 runs, Table 51, read-out: EC50 P10-2) was 0.06 nM; in data set [4] (EC50 value for each of 3 runs, Table 53, read-out: EC50 P10-2) it was 0.06 nM.

B5: [Gd/DOTA-NH—CH2-(1,4-Ph)-NH—C(═O)-Met-Ile-NH—(CH2)2-(A-3)]p-Fab^5 (conjugate)
heavy: QVQLVQSGAEVKKPGASVKVSCKASGYTFTNYGLSWVRQAPGQGLEWMGENHPGSGIIYHNEKFRGRVTLTADRSTSTAYMELSSLRSEDTAVYYCARSSGTRGFDYWGQGTLVTVSSASTKGPSVFPLAPSSKSTSGGTAALGCLVKDYFPEPVTVSWNSGALTSGVHTFPAVLQSSGLYSLSSVVTVPSSSLGTQTYICNVNHKPSNTKVDKKVEPKSCD
light: DVVMTQTPLSLSVTPGQPASISCRSSQSIVHSNGNTYLEWYLQKPGQSPQLLIYRVSNRFSGVPDRFSGSGSGTDFTLKISRVEAEDVGVYYCFQGSHGPWTFGQGTKLEIKRTVAAPSVFIFPPSDEQLKSGTASVVCLLNNFYPREAKVQWKVDNALQSGNSQESVTEQDSKDSTYSLSSTLTLSKADYEKHKVYACEVTHQGLSSPVTKSFNRGEC
modifications: non-natural residues
Regarding B5, in data set [3] (setting [7]), the EC50 worked out at 0.15 nM. In data set [5], the “Renal residual amount (normal mice) % of dose/tissue” value is 2.80 % of dose/tissue and the “Renal residual amount (normal mice) Proportion of decrease” value was 91.52%. In addition, in data set [6], the “Renal residual amount (tumor-bearing mice) % of dose/tissue” value is on record as 4.13 % of dose/tissue and the “Renal residual amount (tumor-bearing mice) Proportion of decrease” value came to 88.08%.

B6: [Gd/DOTA-NH—CH2-(1,4-Ph)-NH—C(═O)-Met-Ile-NH—(CH2)2—Z1(#N)]p-Fab^5 (conjugate)
heavy: QVQLVQSGAEVKKPGASVKVSCKASGYTFTNYGLSWVRQAPGQGLEWMGENHPGSGIIYHNEKFRGRVTLTADRSTSTAYMELSSLRSEDTAVYYCARSSGTRGFDYWGQGTLVTVSSASTKGPSVFPLAPSSKSTSGGTAALGCLVKDYFPEPVTVSWNSGALTSGVHTFPAVLQSSGLYSLSSVVTVPSSSLGTQTYICNVNHKPSNTKVDKKVEPKSCD
light: DVVMTQTPLSLSVTPGQPASISCRSSQSIVHSNGNTYLEWYLQKPGQSPQLLIYRVSNRFSGVPDRFSGSGSGTDFTLKISRVEAEDVGVYYCFQGSHGPWTFGQGTKLEIKRTVAAPSVFIFPPSDEQLKSGTASVVCLLNNFYPREAKVQWKVDNALQSGNSQESVTEQDSKDSTYSLSSTLTLSKADYEKHKVYACEVTHQGLSSPVTKSFNRGEC
modifications: non-natural residues
For B6, the EC50 in data set [4] (setting [8]) turned out to be 0.08 nM.

B7: [Gd/DOTA-NH—CH2-(1,4-Ph)-NH—C(═O)-Met-Ile-NH—(CH2)2-(A-4 and/or A-5)]p-Fab^5 (conjugate)
heavy: QVQLVQSGAEVKKPGASVKVSCKASGYTFTNYGLSWVRQAPGQGLEWMGENHPGSGIIYHNEKFRGRVTLTADRSTSTAYMELSSLRSEDTAVYYCARSSGTRGFDYWGQGTLVTVSSASTKGPSVFPLAPSSKSTSGGTAALGCLVKDYFPEPVTVSWNSGALTSGVHTFPAVLQSSGLYSLSSVVTVPSSSLGTQTYICNVNHKPSNTKVDKKVEPKSCD
light: DVVMTQTPLSLSVTPGQPASISCRSSQSIVHSNGNTYLEWYLQKPGQSPQLLIYRVSNRFSGVPDRFSGSGSGTDFTLKISRVEAEDVGVYYCFQGSHGPWTFGQGTKLEIKRTVAAPSVFIFPPSDEQLKSGTASVVCLLNNFYPREAKVQWKVDNALQSGNSQESVTEQDSKDSTYSLSSTLTLSKADYEKHKVYACEVTHQGLSSPVTKSFNRGEC
modifications: non-natural residues
Consider B7, for which, in data set [3] (setting [7]), the EC50 came to 0.08 nM. Further, in data set [5], the “Renal residual amount (normal mice) % of dose/tissue” value is reported as 2.30 % of dose/tissue and the “Renal residual amount (normal mice) Proportion of decrease” value is recorded as 93.03%. For the same molecule, in data set [6], the “Renal residual amount (tumor-bearing mice) % of dose/tissue” value is 3.17 % of dose/tissue and the “Renal residual amount (tumor-bearing mice) Proportion of decrease” value came out at 90.87%.

B8: [Gd/DOTA-[2,5-(1,2,3,4-tetrahydroisoquinoline)]-C(═O)-Met-Gly-Lys*-C(═S)—NH-(1,4-Ph)-NH—C(═S)]p-Fab^5 (conjugate)
heavy: QVQLVQSGAEVKKPGASVKVSCKASGYTFTNYGLSWVRQAPGQGLEWMGENHPGSGIIYHNEKFRGRVTLTADRSTSTAYMELSSLRSEDTAVYYCARSSGTRGFDYWGQGTLVTVSSASTKGPSVFPLAPSSKSTSGGTAALGCLVKDYFPEPVTVSWNSGALTSGVHTFPAVLQSSGLYSLSSVVTVPSSSLGTQTYICNVNHKPSNTKVDKKVEPKSCD
light: DVVMTQTPLSLSVTPGQPASISCRSSQSIVHSNGNTYLEWYLQKPGQSPQLLIYRVSNRFSGVPDRFSGSGSGTDFTLKISRVEAEDVGVYYCFQGSHGPWTFGQGTKLEIKRTVAAPSVFIFPPSDEQLKSGTASVVCLLNNFYPREAKVQWKVDNALQSGNSQESVTEQDSKDSTYSLSSTLTLSKADYEKHKVYACEVTHQGLSSPVTKSFNRGEC
modifications: non-natural residues
B8: the EC50 in data set [4] (setting [8]) worked out at 0.19 nM.

One may read the EC50 as the concentration that produces a half-maximal response.
